From patent US20250230253A1 (Memorial Sloan Kettering, published 2025)

T1: mouse CD40 (mouse, UniProt P27512 20-193, limits assumed)
T1 construct: Recombinant mouse CD40 protein for ELISA; The construct and tag are not described; also called mCD40
T1 sequence (looked up): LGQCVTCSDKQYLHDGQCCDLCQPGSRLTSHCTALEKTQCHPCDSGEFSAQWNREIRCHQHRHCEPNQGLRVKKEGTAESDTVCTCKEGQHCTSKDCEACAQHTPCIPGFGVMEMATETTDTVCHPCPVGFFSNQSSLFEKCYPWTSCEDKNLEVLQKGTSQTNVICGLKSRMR


Columns and labels:
mouse CD40 = target: T1, mouse CD40; test: ELISA on recombinant mouse CD40 protein, hybridoma supernatant
human CD40 [1] = target: T2, human CD40 (human, UniProt P25942 21-193); test: ELISA of subcloned hybridoma supernatants on hCD40, anti-mouse IgG-HRP detection
T2 construct: Recombinant protein coated for ELISA; The primary screen used 'soluble, His-tagged human CD40 (full-length and IgC2)'; also called huCD40; hCD40; not shown: His tag
Protocol: Next, the hybridomas were selected for subcloning to identify monoclonal antibodies against CD40. Briefly, cells were plated at a 1 cell per well density in 384-well plates, confirmed by microscopy, and expanded. After expansion, supernatants were screened by ELISA against hCD40. The mAbs were detected using anti-mouse IgG-conjugated to HRP.

human CD40 [2] = target: T2, human CD40; test: ELISA on recombinant human CD40 protein, hybridoma supernatant

T2 sequence (P25942 21-193 limits assumed): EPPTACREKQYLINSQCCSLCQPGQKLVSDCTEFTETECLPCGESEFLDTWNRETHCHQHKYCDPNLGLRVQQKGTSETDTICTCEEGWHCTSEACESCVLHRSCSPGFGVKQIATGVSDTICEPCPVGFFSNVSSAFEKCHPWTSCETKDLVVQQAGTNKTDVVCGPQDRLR

| Binder | binding result (mouse CD40) | binding result (human CD40 [1]) | binding result (human CD40 [2]) |
| --- | --- | --- | --- |
| anti-CD40 antibody 41-I22 (antibody, V domains shown, Mouse hybridoma monoclonal antibody tested as hybridoma supernatant and detected with anti-mouse IgG-HRP) VH: EVQLQQSGAVLVKPGASVRLSCTASGFNIKDTYIHWVKQRPEQGLEWIGKIDPANGNTKFDPKFQGKATIAADTSSNTAYLQLSSLTSEDTAVYYCARDYYGTIFPYWYFDVWGAGTTVTVSS VL: QIVLTQSPAIMSASPGEKVTITCSASSSVSYMHWFQQKPGTSPKFWIYITSNLASGVPARFSGSGSGTSYSLTISRMEAEDAATYYCQQRSSYPLTFGAGTKLELK | no binding | binds |  |
| anti-CD40 antibody 10-K9 (antibody, V domains shown, Mouse hybridoma monoclonal antibody tested as hybridoma supernatant and detected with anti-mouse IgG-HRP) VH: EVQLVESGGDLVKPGGSLKLSCAASGFTFSSYGMSWVRQTPDKRLEWVATISSDGSHTYYPDSVKGRFTISRDIAKNTLYLQMSSLKSEDTAMYYCVRQGRYVPSFDVWGAGTTVTVSS VL: DIVLTQSPATLSVTPGDSVSLSCRASQSIRNNLHWYQQKSHESPRLLIKDASQSISGTPSRFSGSGSGTDFTLSINSVETEDFGMYFCHQTNNWPFTFGSGTKLEIK | no binding |  | binds |
| anti-CD40 antibody 9-P1 (antibody, V domains shown, Mouse hybridoma monoclonal antibody tested as hybridoma supernatant and detected with anti-mouse IgG-HRP) VH: QVQLQQSGAELMKPGASVKISCKATGYTFSTYWIEWVKQRPGHGLEWIGEILPGSGSTNYNEKFRGKATFTADTSSNTAYMQLSSLTSEDSAVYYCARSYYTYDQGSWLAYWGQGTLVTVSA VL: DIVMSQSPSSLAVSVGEKVTMTCKSSQSLLYSGNQKNYLAWYQQKPGQSPKLLINWASTRESGVPDRLTGSGSGTDFSLTISSVKAEDLAVYYCQQYYSYPYTFGGGTKLEIK |  | binds |  |
| anti-CD40 antibody 39-K17 (antibody, V domains shown, Mouse hybridoma monoclonal antibody tested as hybridoma supernatant and detected with anti-mouse IgG-HRP) VH: QVQLQQPGAELVKPGASVKLSCTASGYIFTNYWMNWVKQRPGRGLEWIGRIHPSDSESLYNQKFKSKAILTVDKSSSTAYIQLSSLTSEDSAVYYCARSPLTKVVTTDFWGQGTTLTVSS VL: EIVLTQSPAIMPASPGEKVTMTCSASSSVNYMHWYQQKSGTSPKRWIYDTSKLASGVPVRFSGSGSGTSYSLTISSMEAEDAATYYCQQWSSNPLTFGGGTKLEIK | no binding | binds |  |
| anti-CD40 antibody 10-B8 (antibody, V domains shown, Mouse hybridoma monoclonal antibody tested as hybridoma supernatant and detected with anti-mouse IgG-HRP) VH: QVQLQQPGSVLVRPGASVKLSCKASGFTFATSWMHWAKERPGQGLEWIGQIHPNSGNTNYNEKFKGKATLTVDTSSSTAYVDLSSLTSEDSAVYYCARGADYAMDYWGQGTSVTVSS VL: DVLMTQTPLSLPVSLGDQASISCRSSQSIVHSNGNTYLEWYLQKPGQSPKLLIYIVSNRFSGVPDRFSGSGSGTDFTLKISRVEAEDLGVYYCFQGSHVPWTFGGGTKLEIK |  |  | binds |
| anti-CD40 antibody 26-I22 (antibody, V domains shown, Mouse hybridoma monoclonal antibody tested as hybridoma supernatant and detected with anti-mouse IgG-HRP) VH: QVQLQQPGAELVKPGASVKLSCKASGYTFINYWINWMRQRPGQGLEWIGNIYPGSSSTTYNEKFKSKAALTVDTSSSTAYMQLSSLTSDDSAVYFCARSVGYWYFDVWGAGTTVTVSS VL: DIVMSQSPSSLAVSVGEKVTLSCKSSQSLFFSGNQKNFLAWYQQKPGQSPNLLIFWASTRESGVPDRFTGSGSGTDFTLTISSVKAEDLAVYYCQQYYSYPFTFGSGTKLEIK |  | binds |  |

Next, values leading:

| binding result (mouse CD40) | binding result (human CD40 [1]) | binding result (human CD40 [2]) | Binder |
| --- | --- | --- | --- |
| no binding | binds |  | anti-CD40 antibody 41-J9 (antibody, V domains shown, Mouse hybridoma monoclonal antibody tested as hybridoma supernatant and detected with anti-mouse IgG-HRP) VH: DVQLQESGPDLVKPSQSLSLTCTVTGYSITSDYSWHWIRQFPGNKLEWMGYIYYSGSTNYNPSLKSRISITRDTSKNQFFLQLNSVTSEDTATYYCARFYYGWSYFDYWGQGTSLTVSS VL: EIVLTQSPAIMPASPGEKVTMTCSASSSVNYMHWYQQKSGTSPKRWIYDTSKLASGVPVRFSGSGSGTSYSLTISSMEAEDAATYYCQQWSSNPLTFGGGTKLEIK |
| no binding | binds |  | anti-CD40 antibody 30-P15 (antibody, V domains shown, Mouse hybridoma monoclonal antibody tested as hybridoma supernatant and detected with anti-mouse IgG-HRP) VH: EVMLVESGGALVKPGGSLKLSCAASGFTFSNYAMSWVRQTPEKRLEWVATIGTSGSYTYYSDSVKGRFTISRDNARNTLYLQMTSLRSEDTAMYYCARRGYYNPTHAMDYWGQGTSVTVSS VL: QAVVTQESALTTSPGETVTLTCRSSTGAVTTSNYANWVQEKPDHLFTGLIGGTNNRAPGVPARFSGSLIGDKAALTITGAQTEDEAIYFCALWYSNHLVFGGGTKLTVL |
| no binding | binds |  | anti-CD40 antibody 12-O17 (antibody, V domains shown, Mouse hybridoma monoclonal antibody tested as hybridoma supernatant and detected with anti-mouse IgG-HRP) VH: QVQLQQSGAELMKPGASVKISCKATGYTFSTYWIEWVKQRPGHGLEWIGEILPGSGSTNYNENFKGKATFTADTSSNTAYMQLSSLTSEDSAVYFCARGGLYYYGGAMDYWGQGTSVTVSS VL: DIVMSQSPSSLAVSVGEKVTMSCKSSQSLLYSGNQKNYLAWYQQKPGQSPKLLIYWASIRESGVPDRFTGSGSGTDFTLTISSVKAEDLAVYYCQQYYSYPYTFGGGTKVEIK |
| no binding | binds |  | anti-CD40 antibody 41-E17 (antibody, V domains shown, Mouse hybridoma monoclonal antibody tested as hybridoma supernatant and detected with anti-mouse IgG-HRP) VH: DVQLVESGGGLVQPGGSRKLSCAASGFTFSTFGMHWVRQAPEKGLEWVAYISGGSSTIYYADTVKGRFTISRDNPKNTLFLQMTSLRSEDTAMYYCVRPYGSVHYAMDYWGQGTSVTVSS VL: DIQMTQTTSSLSASLGDRVTISCRASQDINNYLNWYQQKPDGTVKLLIYYTSRFHSGVPSRFSGSGSGTDYSLTISNLEQEDIATYFCQQGNTLPWTFGGGTKLDIK |
